For 1 substance, Km and kcat results are on record in publication PMC5500849, “Cobamide-mediated enzymatic reductive dehalogenation via long-range electron transfer” (Nature Communications, 2017).

For orientation: Km means the concentration of substrate that gives half-maximal velocity. As a reminder, the kcat is the maximal rate divided by the concentration of active sites.

This series deals with Oc1c(Br)cc(Br)cc1Br. The series can be described thus: purified protein. Particulars: reduced methyl viologen 0.5 mM / Ti(III) citrate 1.4 mM, 100 mM Tris-HCl pH 7.5, 22 °C, no NH4+.

As for “PceA (PceA–Strep) (Sulfurospirillum multivorans)”, the Michaelis-Menten constant (Km) turned out to be 158 µM and the turnover number (kcat) turned out to be 8 s⁻¹.
